Here are results for 3 molecules from patent US20220242957A1 (MARENGO THERAPEUTICS, published 2022).

Experiment [1] concerns the target T1, mouse CCR2 and mouse CSF1R, both expressed on the same ExpiCHO cells (mouse, UniProt P51683 1-373; P09581 20-977).
T1 construct: whole, on cells; Two separate membrane proteins on one cell, not a complex; also called CCR2 and CSF1R double positive cells; both mCCR2 and mCSF1R
Kind of experiment: flow cytometry on ExpiCHO cells transiently transfected with both mouse CCR2 and mouse CSF1R; goat anti-mouse Fc biotin and streptavidin-PE. As to the method: (§1) ExpiCHO cells were transiently transfected with mouse CCR2, mouse CSF1R, or both mouse CCR2 and CSF1R, according to the manufacturer's instructions. In brief, the transfections were performed with ExpiCHO cells at a cell density of 5.6-6.3×10⁶ cells/mL and at least 95% viability. For each transfection, 25 μg of DNA was diluted with 1 mL of OptiPro SFM (Gibco 12309050) and filtered using spin-X centrifuge tube filters (Corning 8160). A solution of 920 µL of OptiPro and 80 μL of expifectamine was added to the filtered DNA, incubated for 1 minute at room temperature, and then added to the cells. On day 1 of the transfection, the cells were enhanced using 150 μL of ExpiCHO enhancer.
(§2) On day 2 of the transfection, the cells were washed with PBS containing 1% BSA (Sigma) and used to set 96-well V-bottom plates (Biotix AP-0350-9CVS) with 100,000 cells/well. UniTI-01 was added to the cells in serial dilutions and incubated for 1 hour at 4° C. The plates were washed twice with PBS containing 1% BSA. […] The plates were read on a CytoFLEX S (Beckman Coulter). Data were calculated as the median fluorescence intensity of the PE-positive population vs. the median fluorescence intensity of the PE-negative population. The data was normalized for the percent of total median fluorescence intensity.
A general note: Flow cytometry measures light scatter and fluorescence of single cells or particles in a stream.

Another experiment addresses T2, mouse CCR2 (mouse, UniProt P51683 1-373).
T2 construct: whole, on cells; also called mCCR2
Kind of experiment: flow cytometry on ExpiCHO cells transiently transfected with mouse CCR2; goat anti-mouse Fc biotin and streptavidin-PE. Here is the method:
as §1, §2

In the next experiment the target is T3, mouse CSF1R (mouse, UniProt P09581 20-977).
T3 construct: whole, on cells; also called mCSF1R
T3 sequence (looked up): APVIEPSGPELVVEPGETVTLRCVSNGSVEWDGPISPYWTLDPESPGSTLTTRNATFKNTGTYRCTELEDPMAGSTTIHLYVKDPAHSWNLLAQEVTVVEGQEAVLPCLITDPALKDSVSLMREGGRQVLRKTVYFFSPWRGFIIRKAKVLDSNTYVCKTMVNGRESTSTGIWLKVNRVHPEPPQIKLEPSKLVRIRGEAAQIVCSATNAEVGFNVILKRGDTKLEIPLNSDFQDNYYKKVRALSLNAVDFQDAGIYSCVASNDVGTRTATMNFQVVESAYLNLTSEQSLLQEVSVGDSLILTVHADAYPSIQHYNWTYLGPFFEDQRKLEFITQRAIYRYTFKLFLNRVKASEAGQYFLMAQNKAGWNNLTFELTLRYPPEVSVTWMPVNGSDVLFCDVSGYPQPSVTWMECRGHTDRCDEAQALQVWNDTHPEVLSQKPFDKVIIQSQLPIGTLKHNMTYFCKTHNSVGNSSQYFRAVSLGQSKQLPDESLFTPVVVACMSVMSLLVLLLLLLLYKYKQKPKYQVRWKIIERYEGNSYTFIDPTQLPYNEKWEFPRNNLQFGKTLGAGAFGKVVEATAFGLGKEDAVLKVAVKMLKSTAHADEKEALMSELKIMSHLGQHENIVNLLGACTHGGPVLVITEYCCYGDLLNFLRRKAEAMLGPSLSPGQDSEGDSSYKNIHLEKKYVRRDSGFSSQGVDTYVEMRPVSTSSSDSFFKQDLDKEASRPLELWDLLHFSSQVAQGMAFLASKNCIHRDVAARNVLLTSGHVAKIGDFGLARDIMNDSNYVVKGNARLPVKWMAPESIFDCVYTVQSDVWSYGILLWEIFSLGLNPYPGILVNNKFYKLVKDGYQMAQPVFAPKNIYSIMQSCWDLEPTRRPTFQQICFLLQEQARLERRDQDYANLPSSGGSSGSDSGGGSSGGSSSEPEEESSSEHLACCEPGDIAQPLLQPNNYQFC
The experiment in a line: flow cytometry on ExpiCHO cells transiently transfected with mouse CSF1R; goat anti-mouse Fc biotin and streptavidin-PE. As to the method:
as §1, §2

Another experiment concerns the target human CSF1R (human, UniProt P07333 20-972). Kind of experiment: cell-based or functional assay.

Sequence of human CSF1R (P07333 20-972): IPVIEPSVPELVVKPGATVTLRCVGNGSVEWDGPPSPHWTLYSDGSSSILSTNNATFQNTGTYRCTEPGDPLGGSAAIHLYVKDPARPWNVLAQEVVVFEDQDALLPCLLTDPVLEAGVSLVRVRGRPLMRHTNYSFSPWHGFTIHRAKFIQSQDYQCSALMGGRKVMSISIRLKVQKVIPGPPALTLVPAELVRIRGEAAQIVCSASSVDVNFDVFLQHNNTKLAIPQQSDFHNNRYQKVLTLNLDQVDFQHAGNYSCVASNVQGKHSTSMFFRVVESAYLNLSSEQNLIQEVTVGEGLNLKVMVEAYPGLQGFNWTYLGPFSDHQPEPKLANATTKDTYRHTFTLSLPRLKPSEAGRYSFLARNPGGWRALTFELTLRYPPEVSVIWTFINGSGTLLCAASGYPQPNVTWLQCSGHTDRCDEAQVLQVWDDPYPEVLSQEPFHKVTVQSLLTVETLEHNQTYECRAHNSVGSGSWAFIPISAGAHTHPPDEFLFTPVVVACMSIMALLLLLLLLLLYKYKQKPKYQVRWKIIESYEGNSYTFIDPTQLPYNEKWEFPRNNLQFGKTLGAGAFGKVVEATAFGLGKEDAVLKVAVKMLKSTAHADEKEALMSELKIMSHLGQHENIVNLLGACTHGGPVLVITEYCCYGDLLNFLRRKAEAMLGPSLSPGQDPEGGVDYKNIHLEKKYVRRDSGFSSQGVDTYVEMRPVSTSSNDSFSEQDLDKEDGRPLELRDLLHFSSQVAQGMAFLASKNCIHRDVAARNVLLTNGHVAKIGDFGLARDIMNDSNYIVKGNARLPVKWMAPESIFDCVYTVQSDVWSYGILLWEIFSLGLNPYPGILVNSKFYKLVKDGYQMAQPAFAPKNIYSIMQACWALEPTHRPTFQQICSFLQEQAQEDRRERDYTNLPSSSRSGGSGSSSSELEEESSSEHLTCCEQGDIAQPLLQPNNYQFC
T2 sequence (P51683 whole entry): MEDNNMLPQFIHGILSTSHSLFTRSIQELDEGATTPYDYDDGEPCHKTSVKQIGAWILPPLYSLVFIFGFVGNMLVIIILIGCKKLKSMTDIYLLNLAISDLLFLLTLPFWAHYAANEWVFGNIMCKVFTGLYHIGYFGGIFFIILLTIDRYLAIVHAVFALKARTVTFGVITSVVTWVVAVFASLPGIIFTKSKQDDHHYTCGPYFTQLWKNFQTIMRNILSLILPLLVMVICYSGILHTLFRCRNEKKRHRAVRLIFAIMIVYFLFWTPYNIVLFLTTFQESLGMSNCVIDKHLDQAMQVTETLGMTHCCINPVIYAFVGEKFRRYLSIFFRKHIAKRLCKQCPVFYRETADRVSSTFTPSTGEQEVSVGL
T1 sequence (P51683 whole entry, one chain of several): as the sequence (P51683 whole entry) above

B1: UniTI-01 (multispecific molecule #1, anti-CCR2/anti-CSF1R bispecific antibody) (bispecific antibody)
heavy 1: QVQLQESGPGLVQPSQTLSLTCTVSGFSLTDFSVHWVRQPPGKGLEWMGRIRSEGNTDYNSALKSRLSISRDTSKSQVFLKMNSLQTEDTAIYFCTRGDILGFGYWGQGVMVTVSSAQTTAPSVYPLAPGCGDTTSSTVTLGCLVKGYFPEPVTVTWNSGALSSDVHTFPAVLQSGLYTLTSSVTSSTWPSQTVTCNVAHPASSTKVDKKVERRTIKPCPPCKCPAPNLLGGPSVFIFPPKIKDVLMISLSPIVTCVVVDVSEDDPDVQISWFVNNVEVHTAQTQTHREDYNSTLRVVSALPIQHQDWMSGKEFKCKVNNKDLPAPIERTISKPKGSVRAPQVYVLPPCEEEMTKKQVTLWCMVTDFMPEDIYVEWTNNGKTELNYKNTEPVLDSDGSYFMYSKLRVEKKNWVERNSYSCSVVHEGLHNHHTTKSFSRTPGK
light 1: DIVMTQSPLSVSVTPGESASISCRSSKSLLHFKGITFVYWYLQKPGQSPQLLIFRMSSLASGVPDRFSGSGSETDFTLKISRVEAEDVGTYYCGQLLENPYTFGAGTKLELKRADAAPTVSIFPPSMEQLTSGGATVVCFVNNFYPRDISVKWKIDGSEQRDGVLDSVTDQDSKDSTYSMSSTLSLTKVEYERHNLYTCEVVHKTSSSPVVKSFNRNEC
heavy 2: QVQLQQSGAELVKPGSSVKISCKASGYTFTSNFMHWIKQQPGNGLEWIGWIYPGDGDTEYNQKFNGKATLTADKSSSTAYMQLSSLTSEDSAVYFCAVNYGGYVLDAWGQGASVTVSSAETTAPSVYPLAPGTALKSNSMVTLGCLVKGYFPEPVTVTWNSGALSSGVHTFPAVLQSGLYTLTSSVTVPSSTWSSQAVTCNVAHPASSTKVDKKIVPRECNTIKPCPPCKCPAPNLLGGPSVFIFPPKIKDVLMISLSPIVTCVVVDVSEDDPDVQISWFVNNVEVHTAQTQTHREDYNSTLRVVSALPIQHQDWMSGKEFKCKVNNKDLPAPIERTISKPKGSVRAPQVCVLPPPEEEMTKKQVTLSCAVTDFMPEDIYVEWTNNGKTELNYKNTEPVLDSDGSYFMVSKLRVEKKNWVERNSYSCSVVHEGLHNHHTTKSFSRTPGK
light 2: EIVLTQSPTTMAASPGEKVTITCRASSSTNYMSWYQQKSGASPKPWIYETSKLASGVPDRFSGSGSGTSYSFTISSMETEDAATYYCHQWSSTPLTFGSGTKLEIKRADAAPTVSIFPPSMEQLTSGGATVVCFVNNFYPRDISVKWKIDGSEQRDGVLDSVTDQDSKDSTYSMSSTLSLTKVEYERHNLYTCEVVHKTSSSPVVKSFNRNEC
notes: one arm for each target; also called mUniTI-01
In the case of B1, the EC50 – broadly, the midpoint of the concentration-response curve – in experiment [1] was found to be 0.4 nM; in the experiment with mouse CCR2, 15 nM; with mouse CSF1R, 1 nM.

B2: BIM0554 (antibody, human IgG1, lambda)
heavy: not shown
light: SLVLTQPPSVSVAPGKTARITCGGNNIGSKSVHWYQQKPGQAPVLVVYDDSDRPSGIPERFSGSNSGNTATLTISRVEAGDEADYYCQVWDSSSDHVVFGGGTQLTVLGQPKANPTVTLFPPSSEELQANKATLVCLISDFYPGAVTVAWKADGSPVKAGVETTKPSKQSNNKYAASSYLSLTPEQWKSHRSYSCQVTHEGSTVEKTVAPTECS
chain: not shown
B2: the “IC50 of reduction of MCP-1 (CCL2) secretion by human monocytes cultured with hCSF-1 (electrochemiluminescence)” value in the experiment with human CSF1R was at most 30 nM.

B3: BIM0548 (antibody, human IgG1, lambda)
heavy: EVQLVESGGGLVQPGGSLRLSCAASGFTFSNDEMNWIRQAPGKGLEWVSYISSRSSTIYYADAVKGRFTISRDNARNSLYLQMNSLRAEDTAVYYCARSVDGDGSFDYWGQGTLVTVSSASTKGPSVFPLAPSSKSTSGGTAALGCLVKDYFPEPVTVSWNSGALTSGVHTFPAVLQSSGLYSLSSVVTVPSSSLGTQTYICNVNHKPSNTKVDKRVEPKSCDKTHTCPPCPAPELLGGPSVFLFPPKPKDTLMISRTPEVTCVVVDVSHEDPEVKFNWYVDGVEVHNAKTKPREEQYNSTYRVVSVLTVLHQDWLNGKEYKCKVSNKALPAPIEKTISKAKGQPREPQVCTLPPSREEMTKNQVSLSCAVKGFYPSDIAVEWESNGQPENNYKTTPPVLDSDGSFFLVSKLTVDKSRWQQGNVFSCSVMHEALHNHYTQKSLSLSPGK
light: QLVLTQPPSVSGAPGQRVTISCTGSSSNIGAGYDVHWYQQLPGTAPKLLIYGNSNRPSGVPDRFSGSKSGTSASLAITGLQAEDEADYYCQSYDSSLSEEVFGGGTKLTVLGQPKANPTVTLFPPSSEELQANKATLVCLISDFYPGAVTVAWKADGSPVKAGVETTKPSKQSNNKYAASSYLSLTPEQWKSHRSYSCQVTHEGSTVEKTVAPTECS
chain: not shown
As for B3, in the experiment with human CSF1R, the “IC50 of reduction of MCP-1 (CCL2) secretion by human monocytes cultured with hCSF-1 (electrochemiluminescence)” value is at most 30 nM.
